Reference: the supplement of paper PMC9112550, “Optimization of the antimicrobial peptide Bac7 by deep mutational scanning” (BMC Biology, 2022)
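Note: peptides expressed intracellularly from a pBAD plasmid library in pooled LB shake-flask culture, induced with 0.3% L-arabinose, DNA abundance read by NGS, three biological replicates, DESeq2 with apeglm shrinkage.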

What follows are sequences tested on Escherichia coli TOP10 (assay: shrunken log2 fold change of peptide-encoding DNA abundance (4.5 h post-induction vs induction); higher = less antimicrobial activity (less host growth inhibition)). Details: time post-induction: 4.5 h; library: site-saturation at positions 5, 18, 19, 20.
RRIRGRPPRLPRPRPRPKQMPRP was tested, and the “shrunken log2 fold change” value was 1.03.
For RRIRARPPRLPRPRPRPSHKPRP, the “shrunken log2 fold change” value was 0.0213.
With RRIRMRPPRLPRPRPRPRYWPRP the “shrunken log2 fold change” value was -0.14.
With RRIRVRPPRLPRPRPRPQIQPRP the “shrunken log2 fold change” value was -0.034.
In the case of RRIRLRPPRLPRPRPRPDLLPRP, the “shrunken log2 fold change” value is reported as -0.0261.
RRIRYRPPRLPRPRPRPNGEPRP was tested, and the “shrunken log2 fold change” value was -0.0103.
RRIRCRPPRLPRPRPRPSKMPRP was tested, and the “shrunken log2 fold change” value was -0.492.
In the case of RRIRKRPPRLPRPRPRPLTAPRP, the “shrunken log2 fold change” value is reported as 0.403.
With RRIRLRPPRLPRPRPRPLCEPRP the “shrunken log2 fold change” value was 0.0911.
With RRIRFRPPRLPRPRPRPKNTPRP the “shrunken log2 fold change” value was -0.487.
For RRIRFRPPRLPRPRPRPSYHPRP, the “shrunken log2 fold change” value was -0.485.
In the case of RRIRSRPPRLPRPRPRPKNIPRP, the “shrunken log2 fold change” value is reported as -0.314.
For RRIRRRPPRLPRPRPRPYWAPRP, the “shrunken log2 fold change” value was -0.199.
In the case of RRIRVRPPRLPRPRPRPCNAPRP, the “shrunken log2 fold change” value is reported as -0.184.
For RRIRERPPRLPRPRPRPEVCPRP, the “shrunken log2 fold change” value was -0.0484.
For RRIRWRPPRLPRPRPRPKGAPRP, the “shrunken log2 fold change” value was 0.732.
For RRIRTRPPRLPRPRPRPNRWPRP, the “shrunken log2 fold change” value was -0.0997.
RRIRQRPPRLPRPRPRPMGYPRP was tested, and the “shrunken log2 fold change” value was -0.655.
For RRIRDRPPRLPRPRPRPHRSPRP, the “shrunken log2 fold change” value was -0.015.
For RRIRSRPPRLPRPRPRPVWVPRP, the “shrunken log2 fold change” value was 0.351.
For RRIRWRPPRLPRPRPRPEWNPRP, the “shrunken log2 fold change” value was 0.482.
For RRIRRRPPRLPRPRPRPNGRPRP, the “shrunken log2 fold change” value was -0.0152.
RRIRIRPPRLPRPRPRPRGNPRP was tested, and the “shrunken log2 fold change” value was -0.0419.
For RRIRERPPRLPRPRPRPSSFPRP, the “shrunken log2 fold change” value was -0.426.
For RRIRPRPPRLPRPRPRPCECPRP, the “shrunken log2 fold change” value was -0.014.
With RRIRERPPRLPRPRPRPPKEPRP the “shrunken log2 fold change” value was 0.0608.
With RRIRVRPPRLPRPRPRPFFPPRP the “shrunken log2 fold change” value was -0.0751.
In the case of RRIRPRPPRLPRPRPRPERAPRP, the “shrunken log2 fold change” value is reported as 1.17.
For RRIRIRPPRLPRPRPRPSQIPRP, the “shrunken log2 fold change” value was -0.142.
RRIRSRPPRLPRPRPRPCVFPRP was tested, and the “shrunken log2 fold change” value was -0.112.
RRIRPRPPRLPRPRPRPERVPRP was tested, and the “shrunken log2 fold change” value was 0.451.
For RRIRERPPRLPRPRPRPCATPRP, the “shrunken log2 fold change” value was 0.0398.
RRIRIRPPRLPRPRPRPGKAPRP was tested, and the “shrunken log2 fold change” value was 0.039.
In the case of RRIRKRPPRLPRPRPRPAPQPRP, the “shrunken log2 fold change” value is reported as 0.937.
For RRIRGRPPRLPRPRPRPDSHPRP, the “shrunken log2 fold change” value was 0.0299.
For RRIRVRPPRLPRPRPRPHECPRP, the “shrunken log2 fold change” value was -0.0944.
RRIRMRPPRLPRPRPRPKFSPRP was tested, and the “shrunken log2 fold change” value was 0.0925.
RRIRYRPPRLPRPRPRPDFPPRP was tested, and the “shrunken log2 fold change” value was -0.48.
In the case of RRIRPRPPRLPRPRPRPDWYPRP, the “shrunken log2 fold change” value is reported as -0.213.
For RRIRARPPRLPRPRPRPMSMPRP, the “shrunken log2 fold change” value was 0.0853.
In the case of RRIRDRPPRLPRPRPRPWTMPRP, the “shrunken log2 fold change” value is reported as -0.0209.
For RRIRNRPPRLPRPRPRPYTRPRP, the “shrunken log2 fold change” value was -0.124.
For RRIRVRPPRLPRPRPRPWPFPRP, the “shrunken log2 fold change” value was 0.14.
In the case of RRIRMRPPRLPRPRPRPNNSPRP, the “shrunken log2 fold change” value is reported as -0.327.
With RRIRQRPPRLPRPRPRPMAGPRP the “shrunken log2 fold change” value was 0.132.
In the case of RRIRPRPPRLPRPRPRPMVPPRP, the “shrunken log2 fold change” value is reported as 0.18.
With RRIRWRPPRLPRPRPRPQQRPRP the “shrunken log2 fold change” value was -0.102.
For RRIRVRPPRLPRPRPRPREAPRP, the “shrunken log2 fold change” value was 0.0545.
With RRIRIRPPRLPRPRPRPPHQPRP the “shrunken log2 fold change” value was 0.000816.
RRIRCRPPRLPRPRPRPCDNPRP was tested, and the “shrunken log2 fold change” value was -0.0831.
For RRIRRRPPRLPRPRPRPIARPRP, the “shrunken log2 fold change” value was 0.0248.
RRIRERPPRLPRPRPRPSPPPRP was tested, and the “shrunken log2 fold change” value was -0.013.
With RRIRLRPPRLPRPRPRPFHDPRP the “shrunken log2 fold change” value was -0.713.
RRIRMRPPRLPRPRPRPELLPRP was tested, and the “shrunken log2 fold change” value was 3.52.
For RRIRVRPPRLPRPRPRPRRLPRP, the “shrunken log2 fold change” value was 0.135.
With RRIRPRPPRLPRPRPRPQAKPRP the “shrunken log2 fold change” value was 0.277.
With RRIRFRPPRLPRPRPRPPHVPRP the “shrunken log2 fold change” value was 0.203.
For RRIRTRPPRLPRPRPRPMVLPRP, the “shrunken log2 fold change” value was -0.0596.
With RRIRDRPPRLPRPRPRPMNFPRP the “shrunken log2 fold change” value was -0.285.
In the case of RRIRNRPPRLPRPRPRPDKWPRP, the “shrunken log2 fold change” value is reported as -0.258.
For RRIRCRPPRLPRPRPRPMMIPRP, the “shrunken log2 fold change” value was -0.044.
With RRIRDRPPRLPRPRPRPDYMPRP the “shrunken log2 fold change” value was 0.0916.
In the case of RRIRVRPPRLPRPRPRPICKPRP, the “shrunken log2 fold change” value is reported as -0.149.
With RRIRQRPPRLPRPRPRPTSIPRP the “shrunken log2 fold change” value was -0.18.
In the case of RRIRLRPPRLPRPRPRPRYTPRP, the “shrunken log2 fold change” value is reported as -0.0696.
In the case of RRIRKRPPRLPRPRPRPTGNPRP, the “shrunken log2 fold change” value is reported as 0.563.
With RRIRIRPPRLPRPRPRPLMVPRP the “shrunken log2 fold change” value was -0.942.
In the case of RRIRHRPPRLPRPRPRPCREPRP, the “shrunken log2 fold change” value is reported as 0.0163.
RRIRIRPPRLPRPRPRPPKGPRP was tested, and the “shrunken log2 fold change” value was 0.0681.
In the case of RRIRARPPRLPRPRPRPTHSPRP, the “shrunken log2 fold change” value is reported as 0.459.
For RRIRGRPPRLPRPRPRPCEFPRP, the “shrunken log2 fold change” value was 0.0669.
RRIRIRPPRLPRPRPRPVELPRP was tested, and the “shrunken log2 fold change” value was -0.0129.
RRIRPRPPRLPRPRPRPIYNPRP was tested, and the “shrunken log2 fold change” value was -0.837.
In the case of RRIRIRPPRLPRPRPRPDLMPRP, the “shrunken log2 fold change” value is reported as -0.396.
With RRIRKRPPRLPRPRPRPGPWPRP the “shrunken log2 fold change” value was 0.63.
